# B1: FRP: exogenous FRP3, inhibitor of Wnt (protein, UniProt Q92765 33-325, looked up)
# Secreted frizzled-related …: AACEPVRIPLCKSLPWNMTKMPNHLHHSTQANAILAIEQFEGLLGTHCSPDLLFFLCAMYAPICTIDFQHEPIKPCKSVCERARQGCEPILIKYRHSWPENLACEELPVYDRGVCISPEAIVTADGADFPMDSSNGNCRGASSERCKCKPIRATQKTYFRNNYNYVIRAKVKEIKTKCHDVTAVVEVKEILKSSLVNIPRDTVNLYTSSGCLCPPLNVNEEYIIMGYEDEERSRLLLVEGSIAEKWKDRLGKKVKRWDMKLRHLGLSKSDSSNSDSTQSQKSGRNSNPRQARN
# B2: Wnt3A: exogenous Wnt3A (protein, UniProt P56704 19-352, looked up)
# Protein Wnt-3a: SYPIWWSLAVGPQYSSLGSQPILCASIPGLVPKQLRFCRNYVEIMPSVAEGIKIGIQECQHQFRGRRWNCTTVHDSLAIFGPVLDKATRESAFVHAIASAGVAFAVTRSCAEGTAAICGCSSRHQGSPGKGWKWGGCSEDIEFGGMVSREFADARENRPDARSAMNRHNNEAGRQAIASHMHLKCKCHGLSGSCEVKTCWWSQPDFRAIGDFLKDKYDSASEMVVEKHRESRGWVETLRPRYTYFKVPTERDLVYYEASPNFCEPNPETGSFGTRDRTCNVSSHGIDGCDLLCCGRGHNARAERRREKCRCVFHWCCYVSCQECTRVYDVHTCK
# B3: soluble TGF-β receptor II: a decoy composed of the extracellular portion of TGF-β receptor II (protein, UniProt P37173 23-166, looked up)
# extracellular domain: TIPPHVQKSVNNDMIVTDNNGAVKFPQLCKFCDVRFSTCDNQKSCMSNCSITSICEKPQEVCVAVWRKNDENITLETVCHDPKLPYHDFILEDAASPKCIMKEKKKPGETFFMCSCSSDECNDNIIFSEEYNTSNPDLLLVIFQ
# modifications: extracellular domain
# What was measured:
# [1] = test system: MAPK pathway / Notch in human satellite cells; experiment: Western blot of Delta, active Notch and pERK in human satellite cells cultured with MAPK agonists and antagonists; assay type: cell-based; conditions: human satellite cells in culture
# Method: (§1) Myofiber and satellite cell cultures were isolated from basal state human biopsies, in a manner similar to those previously described for the mouse model (Conboy et al. (2003) Science 302:1575-1577). Whole muscle biopsies were prepared for myofiber fragments by enzymatic digestion −37° C. in DMEM (Invitrogen, Carlsbad, Calif.)/Pen-Strep (Invitrogen)/0.2% Collagenase Type IIA (Sigma), trituration, and multiple sedimentation and washing procedures. Isolated satellite cells and myofibers were resuspended in growth medium (Ham's F10 nutrient mixture—Mediatech, Inc., Herndon, Va.), 10% BGS, 5 ng/ml hbFGF (Invitrogen) and 1% Pen-Strep, and cultured on Matrigel (diluted 1:250). Blood was collected from subjects for sera isolation. Briefly, blood cells were coagulated followed by centrifugation at 8,000 rpm, 4° C. in a microfuge for 3 minutes.
# For Western Blot analysis, whole skeletal muscle lysates were prepared in lysis buffer (50 mM Tris, 150 mM NaCl, 1% NP40, 0.25% sodium deoxycholate and 1 mM EDTA, pH 7.4) with addition of protease inhibitor cocktail (Sigma) and 1 mM PMSF. Phosphatase activity was inhibited by 1 mM sodium fluoride and 1 mM sodium orthovanadate. For most assays, 30 μg protein extracts were run on pre-cast SDS PAGE gels (BioRad). Primary antibodies were diluted in 5% non-fat milk/1× PBST, and nitrocellulose membranes were incubated with antibody mixtures overnight at 4° C. HRP-conjugated secondary antibodies (Santa Cruz Biotech) were diluted 1:1000 in 1× PBST/1% BSA and incubated for 1 hour at room temperature. Blots were developed using Western Lightning ECL reagent (Perkin Elmer) and analyzed with Bio-Rad Gel Doc/Chemi Doc Imaging System and Quantity One software. Results were quantified by digitizing the data and normalizing pixel density of examined protein by actin-specific pixel density.
# The levels of Delta, amounts of active Notch and the efficiency of myogenic responses in human satellite cells cultured in the presence of agonists and antagonists of MAPK pathway were investigated. […]
# [2] = test system: human satellite cells; experiment: Myogenic regenerative capacity of human satellite cells (proliferating fusion-competent myoblasts, desmin/BrdU); assay type: cell-based; conditions: young and old human satellite cells in culture
# Method: as §1, with “minutes. […]” for “minutes.”
# To examine effects of TGF-β on myogenic properties of human muscle stem cells, exogenous molecule was added to young and old human satellite cells in culture. Myogenic capacity was determined based on numbers of fusion-competent, proliferating myoblasts, e.g., cells that rapidly (in approximately 2 hours) incorporate BrdU, co-express desmin and MyoD and fuse into eMyHC+myotubes when transferred to mitogen-low medium. […]
# [3] = test system: muscle stem cells (satellite cells); experiment: Myogenic responses of mouse muscle stem cells in young or old mouse sera (TGF-β1 depletion and add-back, Wnt3A, FRP3); assay type: cell-based
# Method: To examine the relative role of circulating TGF-β1 in the age-specific inhibition of muscle stem cell responses, TGF-β1 was depleted from young and old mouse sera and then added back in a range of concentrations. Muscle stem cells derived from young and old mice were cultured in the presence of young and old mouse sera that differed only in the levels of TGF-β1, and the regenerative responses of these cells were assayed. Serum was depleted of TGF-β1 by incubation with a TGF-β1 specific antibody (or an isotype-matched control IgG) followed by binding and removal of the TGF-β1-antibody complexes (or IgG control antibody complexes, e.g. control sera) using protein G-coated agarose beads. The success in the TGF-β1 depletion was confirmed by ELISA. The myogenic regenerative potential of muscle stem cells was quantified based on their ability to rapidly (overnight) generate de-novo myogenic lineages: BrdU-incorporating desmin+myoblasts (myogenic proliferation) that differentiate into post-mitotic eMyHC+myotubes (myogenic differentiation). The time course of such de-novo in vitro myogenesis that recapitulates the in vivo muscle repair is shown in FIG. 14A-D. Myogenic proliferation (at 24-28 hours of culture) and myogenic differentiation (at 48-72 hours of culture) were consistently higher for young satellite cells as compared to old satellite cells and in young sera as compared to old sera at all time points (FIGS. 17 and 18). The non-myogenic, desmin negative proliferating fibroblasts (known to contaminate satellite cell preparations at ˜2-5% and to expand in the presence of old sera or high levels of TGF-β (Carlson et al., 2008) were less numerous in cultures with experimentally calibrated levels of TGF-β1 (FIG. 15) and also declined in cultures with exogenous Wnt 3A (FIG. 16A).
# Recombinant TGF-β1 was added at a range of concentrations to these mouse sera (depleted from endogenous TGF-β1) and assayed the regenerative responses of muscle stem cells, as above. […] The levels of TGF-β1 that are permissive for myogenic responses correspond to the range of bioactive TGF-β1 found in young blood sera, while the inhibitory range corresponds to the levels typical of aged circulation. The threshold mode of TGF-β1-imposed inhibition of muscle repair established here, also correlate well with the results of heterochronic parabiosis.
# A similar rescue of satellite cell responses in the presence of old serum was reported to be achieved by inhibition of Wnt via FRPs, and exogenous Wnt3A was reported to inhibit satellite cell myogenic responses, in favor of fibroblast trans-differentiation (Brack et al., (2007), Science, 317:807-810). Thus, an investigation was conducted to determine whether Wnt was potentially synergistic with the TGF-β1-dependent attenuation of myogenic potential. Myogenic potential of young and old satellite cells was examined in the following conditions: young serum with exogenous Wnt3A (by itself or simultaneously with exogenous TGF β1) or old serum with exogenous FRP3 (by itself or simultaneously with TGF-β neutralization). […] In fact, consistent with the previously reported pro-myogenic activity of Wnt, Wnt3A […].
# Myofiber explant cultures and primary myogenic progenitor cells were generated from C57/Bl6 mice using methods known in the art (see e.g., Conboy et al., (2003), Science, 302:1575-1577). Myoblasts were maintained in growth media (Ham's F-10, 20% FBS, 5 ng/ml basic-FGF, and penicillin-streptomycin). Opti-MEM was used to culture myofibers explants in 10% young, 10% old, or 10% young and old mouse serum (5% each). Differentiation media consisted of DMEM and 5% horse serum. Basic-FGF was obtained from Sigma (St. Louis, Mo.) and R&D systems (Minneapolis, Minn.), Opti-MEM was obtained from Invitrogen (Carlsbad, Calif.), and all other cell culture reagents were obtained from Cellgro (Herndon, Va.).
# [4] = test system: old muscle repair; experiment: Muscle regeneration after CTX injury in mice given systemic TGF-β attenuators; assay type: in vivo, mouse
# Method: Five days before the end of treatment, muscle was injured. At the end of treatment, animals were sacrificed and muscle was collected. BrdU was injected (intraperitoneal) at 3 days post-injury to label proliferating, fusion-competent myoblasts.
# Experiments were conducted to rejuvenate muscle repair in old tissue by attenuating TGF-β pathway activity through systemic pharmacological intervention, in vivo. Three independent attenuators were used: (1) a small molecule inhibitor of TGF-β RI Kinase, (2) TGF-β neutralizing antibody and (3) a decoy composed of the extracellular portion of TGF-β receptor II. These molecules were administered systemically to mice, twice daily. After 10 days of dosage, muscle was injured by CTX, and 5 days after injury and BrdU administration the muscle was harvested, frozen, and examined histologically.
# To control for the potential differences in the half-life of anti-TGF-β neutralizing antibody as compared to TGF-β RI Kinase inhibitor, constitutive systemic delivery of these molecules was provided by osmotic subcutaneous pumps for four weeks.
# [5] = test system: TGF-β1; experiment: ELISA of circulating TGF-β1 in treated old mice; assay type: in vivo, mouse
# Text: Control injections/pumps of goat IgG yielded data typical of young and old untreated mice for muscle repair and TGF-β1 ELISA.
# [6] = test system: TGF-β/pSmad signaling; experiment: Western blot of pSmad3 and TGF-β1 in muscle of treated old mice; assay type: in vivo, mouse; conditions: osmotic pumps
molecule,measurement,setting,value
FGF-2: MAPK agonist FGF-2,Delta levels,[1],induced
same,active Notch levels,[1],induced
same,levels of pERK,[1],induced
same,"myogenic regenerative capacity (proliferating fusion-competent myoblasts, desmin/BrdU)",[2],significantly enhanced
TGF-β1: recombinant TGF-β1 added to cultures or depleted sera [reference compound],"myogenic regenerative capacity (proliferating fusion-competent myoblasts, desmin/BrdU)",[2],dramatically reduced
same,concentration of TGF-β1 that alone suffices for inhibition of myogenic satellite cell responses,"[3]; recombinant TGF-β1 added to mouse sera depleted of endogenous TGF-β1, 1-5 ng/ml and higher",1 to 5 ng/mL
B1,myogenic responses in old serum,[3]; old serum with exogenous FRP3,did not rescue
same,regeneration of old muscle in vivo,[4]; experimental attenuation of Wnt by FRP,did not improve
B2,generation of fusion-competent proliferating myoblasts by satellite cells,"[3]; Wnt3A simultaneously with exogenous TGF-β1, young serum",enhanced
same,myotube formation,[3]; exogenous Wnt3A,enhanced
same,presence of non-myogenic fibroblastic cells (desmin-BrdU+),[3]; exogenous Wnt3A,actually reduced
same,myogenic potential in young serum,[3]; young serum with exogenous Wnt3A,did not reduce
B3,muscle regeneration / myogenic regenerative capacity,"[4]; old mice, systemic administration twice daily, CTX injury after 10 days, 5 days post-injury",did not result in the rejuvenation
same,circulating levels of TGF-β1,[5],failed to reduce
same,levels of TGF-β1 in old muscle,[6],not
same,levels of pSmad3 in old muscle,[6],not
